Source: PMC6512903

How the values were obtained:
Test in all cases: SPR
FcγRIIb/c (human) = FcγRIIb/c (human) (UniProt P31994)
FcRn (human) = FcRn (human) (UniProt P55899)
FcγRIIIb (human) = FcγRIIIb (human) (UniProt O75015)
FcγRIa (human) = FcγRIa (human) (UniProt P12314)
FcγRIIIa (F) (human) = FcγRIIIa (F) (human) (UniProt P08637)
FcγRIIIa (V) (human) = FcγRIIIa (V) (human) (UniProt P08637)

Chain of UniProt P55899 (P55899 24-365, chain 1 of 2): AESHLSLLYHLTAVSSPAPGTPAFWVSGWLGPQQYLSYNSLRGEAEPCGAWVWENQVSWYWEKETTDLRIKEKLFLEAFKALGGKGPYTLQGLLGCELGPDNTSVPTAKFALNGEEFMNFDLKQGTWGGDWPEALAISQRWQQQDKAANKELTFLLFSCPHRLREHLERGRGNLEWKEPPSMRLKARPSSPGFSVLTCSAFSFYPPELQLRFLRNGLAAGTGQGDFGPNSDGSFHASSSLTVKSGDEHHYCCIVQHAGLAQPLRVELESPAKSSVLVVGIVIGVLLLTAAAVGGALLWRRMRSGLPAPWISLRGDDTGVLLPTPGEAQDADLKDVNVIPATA
Chain of UniProt P55899 (P61769 21-119, chain 2 of 2, further chain): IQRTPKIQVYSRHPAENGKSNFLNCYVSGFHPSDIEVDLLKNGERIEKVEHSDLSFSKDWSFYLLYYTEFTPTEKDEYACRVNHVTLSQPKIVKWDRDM
Chain of UniProt P12314 (P12314 16-374): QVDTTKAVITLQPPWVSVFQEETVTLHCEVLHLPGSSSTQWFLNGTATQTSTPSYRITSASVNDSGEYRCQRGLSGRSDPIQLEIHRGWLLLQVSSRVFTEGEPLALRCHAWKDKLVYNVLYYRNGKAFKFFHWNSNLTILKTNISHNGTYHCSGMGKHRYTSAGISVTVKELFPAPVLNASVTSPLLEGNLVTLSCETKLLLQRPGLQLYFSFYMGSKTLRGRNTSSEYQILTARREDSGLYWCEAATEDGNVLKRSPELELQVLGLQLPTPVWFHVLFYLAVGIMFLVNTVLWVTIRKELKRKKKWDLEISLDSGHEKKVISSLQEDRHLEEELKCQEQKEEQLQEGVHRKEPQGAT
Chain of UniProt P31994 (P31994 43-310): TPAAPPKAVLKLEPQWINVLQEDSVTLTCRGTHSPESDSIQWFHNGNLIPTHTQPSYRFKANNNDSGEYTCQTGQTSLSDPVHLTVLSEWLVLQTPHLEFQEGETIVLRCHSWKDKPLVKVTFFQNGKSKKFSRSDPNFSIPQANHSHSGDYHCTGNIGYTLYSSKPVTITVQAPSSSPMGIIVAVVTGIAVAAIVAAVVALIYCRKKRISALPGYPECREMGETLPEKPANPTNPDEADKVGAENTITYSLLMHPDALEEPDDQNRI
Chain of UniProt O75015 (O75015 17-200): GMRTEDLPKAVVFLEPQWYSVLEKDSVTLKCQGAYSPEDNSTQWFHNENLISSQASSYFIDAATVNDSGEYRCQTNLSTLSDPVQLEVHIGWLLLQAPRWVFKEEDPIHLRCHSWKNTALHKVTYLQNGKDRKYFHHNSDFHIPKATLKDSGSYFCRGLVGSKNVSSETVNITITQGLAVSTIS

Substance | relative binding activity (KD ratio to a reference), mean of batches (FcγRIIb/c (human)) | relative binding activity (KD ratio to a reference), mean of batches (FcRn (human)) | relative binding activity (KD ratio to a reference), mean of batches (FcγRIIIb (human)) | relative binding activity (KD ratio to a reference), mean of batches (FcγRIa (human)) | relative binding activity (KD ratio to a reference), mean of batches (FcγRIIIa (F) (human)) | relative binding activity (KD ratio to a reference), mean of batches (FcγRIIIa (V) (human))
CN-rituximab (MabThera, sourced in China but manufactured in Europe) (antibody) | 99% | 131% |  |  |  | 
EU-rituximab (MabThera, sourced and manufactured in Europe) (antibody) |  | 121% | 90% | 118% |  | 
HLX01 (antibody) | 90% | 113% |  | 103% | 98% | 95%
